Consider 14 molecules from article PMC3438196.

First the molecules themselves.
B1: Apobec3G-GFP MAPPIT bait (pCEL-Apobec3G-GFP), Q9HC16 Y59N (protein)
chain: MKPHFRNTVERMYRDTFSYNFYNRPILSRRNTVWLCYEVKTKGPSRPPLDAKIFRGQVNSELKYHPEMRFFHWFSKWRKLHRDQEYEVTWYISWSPCTKCTRDMATFLAEDPKVTLTIFVARLYYFWDPDYQEALRSLCQKRDGPRATMKIMNYDEFQHCWSKFVYSQRELFEPWNNLPKYYILLHIMLGEILRHSMDPPTFTFNFNNEPWVRGRHETYLCYEVERMHNDTWVLLNQRRGFLCNQAPHKHGFLEGRHAELCFLDVIPFWKLDLDQDYRVTCFTSWSPCFSCAQEMAKFISKNKHVSLCIFTARIYDDQGRCQEGLRTLAEAGAKISIMTYSEFKHCWDTFVDHQGCPFQPWDGLDEHSQDLSGRLRAILQNQEN
B2: Apobec3G-GFP MAPPIT bait (pCEL-Apobec3G-GFP), Q9HC16 F157I (protein)
chain: MKPHFRNTVERMYRDTFSYNFYNRPILSRRNTVWLCYEVKTKGPSRPPLDAKIFRGQVYSELKYHPEMRFFHWFSKWRKLHRDQEYEVTWYISWSPCTKCTRDMATFLAEDPKVTLTIFVARLYYFWDPDYQEALRSLCQKRDGPRATMKIMNYDEIQHCWSKFVYSQRELFEPWNNLPKYYILLHIMLGEILRHSMDPPTFTFNFNNEPWVRGRHETYLCYEVERMHNDTWVLLNQRRGFLCNQAPHKHGFLEGRHAELCFLDVIPFWKLDLDQDYRVTCFTSWSPCFSCAQEMAKFISKNKHVSLCIFTARIYDDQGRCQEGLRTLAEAGAKISIMTYSEFKHCWDTFVDHQGCPFQPWDGLDEHSQDLSGRLRAILQNQEN
B3: Apobec3G-GFP MAPPIT bait (pCEL-Apobec3G-GFP), Q9HC16 V265M (protein)
chain: MKPHFRNTVERMYRDTFSYNFYNRPILSRRNTVWLCYEVKTKGPSRPPLDAKIFRGQVYSELKYHPEMRFFHWFSKWRKLHRDQEYEVTWYISWSPCTKCTRDMATFLAEDPKVTLTIFVARLYYFWDPDYQEALRSLCQKRDGPRATMKIMNYDEFQHCWSKFVYSQRELFEPWNNLPKYYILLHIMLGEILRHSMDPPTFTFNFNNEPWVRGRHETYLCYEVERMHNDTWVLLNQRRGFLCNQAPHKHGFLEGRHAELCFLDMIPFWKLDLDQDYRVTCFTSWSPCFSCAQEMAKFISKNKHVSLCIFTARIYDDQGRCQEGLRTLAEAGAKISIMTYSEFKHCWDTFVDHQGCPFQPWDGLDEHSQDLSGRLRAILQNQEN
B4: Apobec3G-GFP MAPPIT bait (pCEL-Apobec3G-GFP), Q9HC16 K270E (protein)
chain: MKPHFRNTVERMYRDTFSYNFYNRPILSRRNTVWLCYEVKTKGPSRPPLDAKIFRGQVYSELKYHPEMRFFHWFSKWRKLHRDQEYEVTWYISWSPCTKCTRDMATFLAEDPKVTLTIFVARLYYFWDPDYQEALRSLCQKRDGPRATMKIMNYDEFQHCWSKFVYSQRELFEPWNNLPKYYILLHIMLGEILRHSMDPPTFTFNFNNEPWVRGRHETYLCYEVERMHNDTWVLLNQRRGFLCNQAPHKHGFLEGRHAELCFLDVIPFWELDLDQDYRVTCFTSWSPCFSCAQEMAKFISKNKHVSLCIFTARIYDDQGRCQEGLRTLAEAGAKISIMTYSEFKHCWDTFVDHQGCPFQPWDGLDEHSQDLSGRLRAILQNQEN
B5: Apobec3G-GFP MAPPIT bait (pCEL-Apobec3G-GFP), Q9HC16 E191V (protein)
chain: MKPHFRNTVERMYRDTFSYNFYNRPILSRRNTVWLCYEVKTKGPSRPPLDAKIFRGQVYSELKYHPEMRFFHWFSKWRKLHRDQEYEVTWYISWSPCTKCTRDMATFLAEDPKVTLTIFVARLYYFWDPDYQEALRSLCQKRDGPRATMKIMNYDEFQHCWSKFVYSQRELFEPWNNLPKYYILLHIMLGVILRHSMDPPTFTFNFNNEPWVRGRHETYLCYEVERMHNDTWVLLNQRRGFLCNQAPHKHGFLEGRHAELCFLDVIPFWKLDLDQDYRVTCFTSWSPCFSCAQEMAKFISKNKHVSLCIFTARIYDDQGRCQEGLRTLAEAGAKISIMTYSEFKHCWDTFVDHQGCPFQPWDGLDEHSQDLSGRLRAILQNQEN
B6: Apobec3G-GFP MAPPIT bait (pCEL-Apobec3G-GFP), Q9HC16 Y222N (protein)
chain: MKPHFRNTVERMYRDTFSYNFYNRPILSRRNTVWLCYEVKTKGPSRPPLDAKIFRGQVYSELKYHPEMRFFHWFSKWRKLHRDQEYEVTWYISWSPCTKCTRDMATFLAEDPKVTLTIFVARLYYFWDPDYQEALRSLCQKRDGPRATMKIMNYDEFQHCWSKFVYSQRELFEPWNNLPKYYILLHIMLGEILRHSMDPPTFTFNFNNEPWVRGRHETYLCNEVERMHNDTWVLLNQRRGFLCNQAPHKHGFLEGRHAELCFLDVIPFWKLDLDQDYRVTCFTSWSPCFSCAQEMAKFISKNKHVSLCIFTARIYDDQGRCQEGLRTLAEAGAKISIMTYSEFKHCWDTFVDHQGCPFQPWDGLDEHSQDLSGRLRAILQNQEN
B7: Apobec3G-GFP MAPPIT bait (pCEL-Apobec3G-GFP), Q9HC16 R136S (protein)
chain: MKPHFRNTVERMYRDTFSYNFYNRPILSRRNTVWLCYEVKTKGPSRPPLDAKIFRGQVYSELKYHPEMRFFHWFSKWRKLHRDQEYEVTWYISWSPCTKCTRDMATFLAEDPKVTLTIFVARLYYFWDPDYQEALSSLCQKRDGPRATMKIMNYDEFQHCWSKFVYSQRELFEPWNNLPKYYILLHIMLGEILRHSMDPPTFTFNFNNEPWVRGRHETYLCYEVERMHNDTWVLLNQRRGFLCNQAPHKHGFLEGRHAELCFLDVIPFWKLDLDQDYRVTCFTSWSPCFSCAQEMAKFISKNKHVSLCIFTARIYDDQGRCQEGLRTLAEAGAKISIMTYSEFKHCWDTFVDHQGCPFQPWDGLDEHSQDLSGRLRAILQNQEN
B8: Apobec3G-GFP MAPPIT bait (pCEL-Apobec3G-GFP), Q9HC16 W175R (protein)
chain: MKPHFRNTVERMYRDTFSYNFYNRPILSRRNTVWLCYEVKTKGPSRPPLDAKIFRGQVYSELKYHPEMRFFHWFSKWRKLHRDQEYEVTWYISWSPCTKCTRDMATFLAEDPKVTLTIFVARLYYFWDPDYQEALRSLCQKRDGPRATMKIMNYDEFQHCWSKFVYSQRELFEPRNNLPKYYILLHIMLGEILRHSMDPPTFTFNFNNEPWVRGRHETYLCYEVERMHNDTWVLLNQRRGFLCNQAPHKHGFLEGRHAELCFLDVIPFWKLDLDQDYRVTCFTSWSPCFSCAQEMAKFISKNKHVSLCIFTARIYDDQGRCQEGLRTLAEAGAKISIMTYSEFKHCWDTFVDHQGCPFQPWDGLDEHSQDLSGRLRAILQNQEN
B9: Apobec3G-GFP MAPPIT bait (pCEL-Apobec3G-GFP), Q9HC16 W127R (protein)
chain: MKPHFRNTVERMYRDTFSYNFYNRPILSRRNTVWLCYEVKTKGPSRPPLDAKIFRGQVYSELKYHPEMRFFHWFSKWRKLHRDQEYEVTWYISWSPCTKCTRDMATFLAEDPKVTLTIFVARLYYFRDPDYQEALRSLCQKRDGPRATMKIMNYDEFQHCWSKFVYSQRELFEPWNNLPKYYILLHIMLGEILRHSMDPPTFTFNFNNEPWVRGRHETYLCYEVERMHNDTWVLLNQRRGFLCNQAPHKHGFLEGRHAELCFLDVIPFWKLDLDQDYRVTCFTSWSPCFSCAQEMAKFISKNKHVSLCIFTARIYDDQGRCQEGLRTLAEAGAKISIMTYSEFKHCWDTFVDHQGCPFQPWDGLDEHSQDLSGRLRAILQNQEN
B10: Apobec3G-GFP MAPPIT bait (pCEL-Apobec3G-GFP), Q9HC16 W94R (protein)
chain: MKPHFRNTVERMYRDTFSYNFYNRPILSRRNTVWLCYEVKTKGPSRPPLDAKIFRGQVYSELKYHPEMRFFHWFSKWRKLHRDQEYEVTWYISRSPCTKCTRDMATFLAEDPKVTLTIFVARLYYFWDPDYQEALRSLCQKRDGPRATMKIMNYDEFQHCWSKFVYSQRELFEPWNNLPKYYILLHIMLGEILRHSMDPPTFTFNFNNEPWVRGRHETYLCYEVERMHNDTWVLLNQRRGFLCNQAPHKHGFLEGRHAELCFLDVIPFWKLDLDQDYRVTCFTSWSPCFSCAQEMAKFISKNKHVSLCIFTARIYDDQGRCQEGLRTLAEAGAKISIMTYSEFKHCWDTFVDHQGCPFQPWDGLDEHSQDLSGRLRAILQNQEN
B11: Apobec3G-GFP MAPPIT bait (pCEL-Apobec3G-GFP), Q9HC16 L27R (protein)
chain: MKPHFRNTVERMYRDTFSYNFYNRPIRSRRNTVWLCYEVKTKGPSRPPLDAKIFRGQVYSELKYHPEMRFFHWFSKWRKLHRDQEYEVTWYISWSPCTKCTRDMATFLAEDPKVTLTIFVARLYYFWDPDYQEALRSLCQKRDGPRATMKIMNYDEFQHCWSKFVYSQRELFEPWNNLPKYYILLHIMLGEILRHSMDPPTFTFNFNNEPWVRGRHETYLCYEVERMHNDTWVLLNQRRGFLCNQAPHKHGFLEGRHAELCFLDVIPFWKLDLDQDYRVTCFTSWSPCFSCAQEMAKFISKNKHVSLCIFTARIYDDQGRCQEGLRTLAEAGAKISIMTYSEFKHCWDTFVDHQGCPFQPWDGLDEHSQDLSGRLRAILQNQEN
B12: Apobec3G-GFP MAPPIT bait (pCEL-Apobec3G-GFP), Q9HC16 D130Y (protein)
chain: MKPHFRNTVERMYRDTFSYNFYNRPILSRRNTVWLCYEVKTKGPSRPPLDAKIFRGQVYSELKYHPEMRFFHWFSKWRKLHRDQEYEVTWYISWSPCTKCTRDMATFLAEDPKVTLTIFVARLYYFWDPYYQEALRSLCQKRDGPRATMKIMNYDEFQHCWSKFVYSQRELFEPWNNLPKYYILLHIMLGEILRHSMDPPTFTFNFNNEPWVRGRHETYLCYEVERMHNDTWVLLNQRRGFLCNQAPHKHGFLEGRHAELCFLDVIPFWKLDLDQDYRVTCFTSWSPCFSCAQEMAKFISKNKHVSLCIFTARIYDDQGRCQEGLRTLAEAGAKISIMTYSEFKHCWDTFVDHQGCPFQPWDGLDEHSQDLSGRLRAILQNQEN
B13: Apobec3G-GFP MAPPIT bait (pCEL-Apobec3G-GFP), Q9HC16 R24G (protein)
chain: MKPHFRNTVERMYRDTFSYNFYNGPILSRRNTVWLCYEVKTKGPSRPPLDAKIFRGQVYSELKYHPEMRFFHWFSKWRKLHRDQEYEVTWYISWSPCTKCTRDMATFLAEDPKVTLTIFVARLYYFWDPDYQEALRSLCQKRDGPRATMKIMNYDEFQHCWSKFVYSQRELFEPWNNLPKYYILLHIMLGEILRHSMDPPTFTFNFNNEPWVRGRHETYLCYEVERMHNDTWVLLNQRRGFLCNQAPHKHGFLEGRHAELCFLDVIPFWKLDLDQDYRVTCFTSWSPCFSCAQEMAKFISKNKHVSLCIFTARIYDDQGRCQEGLRTLAEAGAKISIMTYSEFKHCWDTFVDHQGCPFQPWDGLDEHSQDLSGRLRAILQNQEN
B14: Apobec3G-GFP MAPPIT bait (pCEL-Apobec3G-GFP), Q9HC16 R238C (protein)
chain: MKPHFRNTVERMYRDTFSYNFYNRPILSRRNTVWLCYEVKTKGPSRPPLDAKIFRGQVYSELKYHPEMRFFHWFSKWRKLHRDQEYEVTWYISWSPCTKCTRDMATFLAEDPKVTLTIFVARLYYFWDPDYQEALRSLCQKRDGPRATMKIMNYDEFQHCWSKFVYSQRELFEPWNNLPKYYILLHIMLGEILRHSMDPPTFTFNFNNEPWVRGRHETYLCYEVERMHNDTWVLLNQCRGFLCNQAPHKHGFLEGRHAELCFLDVIPFWKLDLDQDYRVTCFTSWSPCFSCAQEMAKFISKNKHVSLCIFTARIYDDQGRCQEGLRTLAEAGAKISIMTYSEFKHCWDTFVDHQGCPFQPWDGLDEHSQDLSGRLRAILQNQEN

This test concerns the target codon optimized Vif SLQ144-146AAA MAPPIT prey (pMG2-VifoptSLQ), P12504. As to the kind of experiment: MAPPIT. The following applies: chain shown with the change.
Regarding B1, the percent of parent is 18 % of WT. As for B2, the figure is 39 % of WT; as for B3, 92 % of WT; as for B4, 58 % of WT. Then B5, with 41 % of WT; and B6, with 12 % of WT. Turning to B7, the percent of parent was 53 % of WT.

B8: the percent of parent was 20 % of WT. For B9, the percent of parent is 16 % of WT. B10: the percent of parent was 27 % of WT. Then B11, with 26 % of WT; and B12, with 43 % of WT. On to B13, for which the percent of parent was 32 % of WT. Consider B14, for which the percent of parent is 55 % of WT.
